Target: OleTPRN, CYP152 decarboxylase from Rothia nassimurium forming terminal (poly-unsaturated) olefins, wild type (Rothia nassimurium)
Test: SEC

- stoichiometry N: 2
Substance: OleTPRN, CYP152 decarboxylase from Rothia nassimurium forming terminal (poly-unsaturated) olefins, wild type (enzyme)

Reference: publication PMC10235961
